Results from publication PMC7979805.

Molecular target: endogenous actin of neonatal rat cardiomyocytes (rat (endogenous in neonatal rat cardiomyocytes)) (UniProt P68035)
Assay: co-sedimentation; G-actin/F-actin fractionation of lysates of neonatal rat cardiomyocytes transduced with mCherry or mCherry-Tpm1.1 (G-Actin/F-actin In Vivo Assay Biochem Kit); ultracentrifugation 100,000 x g, 37 °C, 1 h; supernatant and pellet immunoblotted

percent of Tmod1 in the F-actin fraction (cells expressing mCherry) [%]	percent of Tmod1 in the F-actin fraction (cells expressing mCherry-Tpm1.1) [%]	percent of CAP2 in the F-actin fraction (cells expressing mCherry) [%]	percent of CAP2 in the F-actin fraction (cells expressing mCherry-Tpm1.1) [%]	Substance
42.7	65.6	–	–	endogenous Tmod1 of neonatal rat cardiomyocytes (from UniProt P70567 1-359) (natural protein)
–	–	28.6	25	endogenous CAP2 of neonatal rat cardiomyocytes (from UniProt P52481 1-477) (natural protein)
